This assay concerns the target wild type (51S) wheat eIF2α (alpha subunit of wheat eukaryotic initiation factor 2) (wheat). Put plainly: cell-based or functional assay.

As for “PKR (IPTG-inducible, expressed from recombinant vaccinia virus WR 68K) (from UniProt P19525 2-551) (enzyme)”, the phosphorylated peIF2α 51S, densitometric analyses of western blots (HeLa cells) worked out at 3.8 fold.
